Laboratory results reported in the nanobody polyreactivity screen of Harvey et al. (2022).

Assay: yeast display, Sf9 membrane polyspecificity reagent, FACS + sequencing; frameworks hold sequencing errors
Procedure, shortened: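 Nanobodies came from a synthetic yeast display library in Saccharomyces cerevisiae BJ5465, induced with galactose for 36–48 hours and stained for 1 hour at 4 °C with 10% biotinylated, detergent-solubilized Sf9 membrane reagent. Cells were enriched on streptavidin microbeads and then FACS-sorted, with low and high (top ~1%) gates set on anti-HA fluorescence for expression and streptavidin fluorescence for reagent binding. Each polyreactivity label reflects the gate a clone came from. Genes were amplified by colony PCR, sequenced by MiSeq 2 × 250 and filtered by CDR length.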

With “QVQLVESGGGLVQAGGSLRLSCAASGSTFSPNAMGWYRQAPGKERELVAAITYRGANTYYADSVKGRFTISRDNEKNTVYLQMNSLKPEDNAVYYCAAEYAYHHVGFGYWGQGTQVTVSS” as the sequence, how does the “polyreactivity (PSR sort gate)” value read?
The value was “low polyreactivity”.

Which “polyreactivity (PSR sort gate)” value does the source give for “QVHLVESGGGLVQAGGSLRLSCAASGNSFTGNAMGWYRQAPGKETELVAALSKRGGSTFYADSVKGRFTISRDNPKNTVYLQLNRLKPEDTAVYYCNALRRGVRDPYGYWGQGTQVTVSS” here?
Its value is “high polyreactivity”.

Which “polyreactivity (PSR sort gate)” value does the source give for “QVQLVESGGGLVQAGGSLSLSCASSANIFGVYAKGWYRQPPGKERELVAAIRYSTVSTYYADSVKGRFTISRDNAKNTVYLQLHSLKPEDTAVFYCAAQRRLYLPGHYYYWGQGTQVTVSS” here?
Its value is “high polyreactivity”.

For “QVQLVESGGGLVQAGGRLRLSCAASGRTFYVYTMGWYRQAPGPERELVAAIPSGGSTNYADSVKGRFTISRDNAKKTVYLQMNSLKPEDTAVYYCAARDSTVFKRYYYWGQGTQVTVSS”, which “polyreactivity (PSR sort gate)” value is on record?
The value was “high polyreactivity”.

With “QVQLVESGGGLVQAGGSLRLSCAASGFISGFYGMGWYRQAPGKEREFVAAIDFIDGDTYYADSVKGRFTISRDNAKNTVYLQMNSLKPEDTAVYYCAADGSFWQFDYWGQGTQVTVSS” as the sequence, how does the “polyreactivity (PSR sort gate)” value read?
Its value is “low polyreactivity”.

With “QLQLVESGGGLVQAGGSLRLSCAASGFISWCNAMGWYRQAPGKERELVAAISWRDARTYYADSVKGRFTLSRDNAKNTVYLQMNSLKPEDTAVYYCNAVTAYVSRYLRGYRWFDYWGQGTQVTVSS” as the sequence, how does the “polyreactivity (PSR sort gate)” value read?
Its value is “low polyreactivity”.

Which “polyreactivity (PSR sort gate)” value does the source give for “QVQIVESRGGLVQAGGSLRLSCSASGRTFTYYAMGWYRQAPGKERELVASITSGGSTYADSVKGRFTISRDNAMNTVYLQMNSLKPEDTAVYYCAARAWGYRYKYYWGQGTLVTVSS” here?
Its value is “high polyreactivity”.

With “QVQLVESGGGLVQAGGSLRLSCAASGSILTGNAMGWYRPAPGKERELVAAISAGGTRTYYADSVKGRFTISRDNAKNTVYLQMNSLKPEDTAVYYCAADSSKRIGYDYWGQGTQVTVSS” as the sequence, how does the “polyreactivity (PSR sort gate)” value read?
Its value is “high polyreactivity”.

With “QVQLVESGGGLFQAGGSLRLSCAASGSTFPKYEMGWYRQAPGKERELVATISSGTRTYYADSVKGRFTISRDNAKNTVYLQMNSLKPDDTAVYYCAASYQPRKGAHYGYWGQGSQVTVSS” as the sequence, how does the “polyreactivity (PSR sort gate)” value read?
The value was “high polyreactivity”.

With “QVQLVESGGGLVQAGGSLRLSCAASGRTFGFNVMGCSRQAPGKERELVAAISWSGGSTYYADSVKGRFTISRDNAKNTVYLQLNSLKPEDTAVYYCNKRDDHRYGYWGQGTQVTVSS” as the sequence, how does the “polyreactivity (PSR sort gate)” value read?
Its value is “low polyreactivity”.

With “QVHLVDSGGGLVQAGGSLRLSSAASGRIFGHYALGGYRQAPGKPRELVAAIRYSAGRTYYAGSVKGRFTISRDNAKNSVNLQMNSLKPEDTSVYYCAKTCRYLTGGGDYWGQGTQVTVSS” as the sequence, how does the “polyreactivity (PSR sort gate)” value read?
Its value is “high polyreactivity”.

Which “polyreactivity (PSR sort gate)” value does the source give for “QVQLVESGGGLVQAGGSLRLSCSASGRNFKYYAMGWYRKAPGKERELVAAITSTGGSTYYADSVKGRFTISRDNGKNTVYLQLNSLKPEDTAVYYCNRDTQYRDRSDNHWGQGTQVTVSS” here?
Its value is “high polyreactivity”.

For “QVQLVESGGGLVQAGGSLRLSCAASGRTLIYNVMGWYRQAPGKERELVAAITNGGSTYYADSVKGRFTISRDNAKNTVYLQMNSLKPEDTAVYYCATRYGKTYWGQGNQVTVSS”, which “polyreactivity (PSR sort gate)” value is on record?
The value was “high polyreactivity”.

For “QVQLVESGGGLVQAGGSLRLSCAASGFIFWFNDMGWYRQAPGKERELVATISWSDTSTYYADSVKGRFTISRDNAKNTVYLQMTSLKPEDTAVYYCATDGRETCLPEYYWGQGTQVTVSS”, which “polyreactivity (PSR sort gate)” value is on record?
The value was “low polyreactivity”.

With “QVQLVESGGGLVQAGGSLRLSCPASGFNFPAYTMGSYRQAPGKERELVAAITSSGGNTYYADSVKGRFTISRDNAKNTVYFQMNSLKPEDTAVYYCATVSVRWPSNDHVRYDYWGQGTQVTVSS” as the sequence, how does the “polyreactivity (PSR sort gate)” value read?
The value was “low polyreactivity”.

For “QVQLVESGGGLVQAGGSLRLSCAASGSIYGDYAMGWYRQAPGKERELVAAISWRGVRTYYADSVKGRFTISRDNAKNTVYLQMNSLNPEDTAVYYCDAEYYFVNRGAWYDYWGQGTQVTVSS”, which “polyreactivity (PSR sort gate)” value is on record?
Its value is “high polyreactivity”.

For “QVQLVESGGGLVQAGGSLRLSCAASGSTFYDYAMGWYRQAPGKERELVAAISQSGGSTYYADSVKGRFTISRDNAKNTVYLQMNSLKPEDTAVYYCAADSGYSLYDYWGQGTQVTVSS”, which “polyreactivity (PSR sort gate)” value is on record?
The value was “low polyreactivity”.

For “QVQLVESGGGLVQAGGSLRLSCAASGRTCDRNTMGWYRQAPGKERELVAAISGSSARTYYADSVKGRFTISRDNAKNTVYLQMNSLKPEDTAVYYCNAEYGARAQHYEGDSWGQGTQVTVSS”, which “polyreactivity (PSR sort gate)” value is on record?
The value was “high polyreactivity”.

Which “polyreactivity (PSR sort gate)” value does the source give for “QVQLVESGGGLVQAGGSLRLSCAASGRTLVDYAMGWYRQAPGKERELVAAINFSGGSTNYADSVKGRFTISRDNAKNTVYLQMNSLKPEDTAVYYCNKEGRPDRDYWGQGTQVTVSS” here?
The value was “low polyreactivity”.

With “QVQLVESGGGLDQAGGSLRLSCAASGSIFVHYAMGWYRQAPGKERELVAGITFRGGRTYYADSVKGRFTISRDNAKNTVYLQMNSLKPEDTAVYYCAALYSVRGGYPSSHRIRMEYCGQGTQVTVSS” as the sequence, how does the “polyreactivity (PSR sort gate)” value read?
Its value is “high polyreactivity”.

For “QVQLVESGGGLVQAGGSLRLSCAASGSIFTYYVMGWYRQAPGKERELVAAITISGGSTYYADSVKGRFTISRDNAKNTVYLQMNRLNPEDTAVYYCAAEEVYYEADGFLYSYDYWGKGTQVTVSS”, which “polyreactivity (PSR sort gate)” value is on record?
The value was “high polyreactivity”.

With “QVQLVESGGGLVQAGGSLRLSCAASGRIFNAYAMGWYRPAPGKERELVAAISSIGGRTYYADSVKGRFTISRDNAKNTVYLQMNSLKPVDTAVYYCAADWSYVRYYYWGQGTQVTVSS” as the sequence, how does the “polyreactivity (PSR sort gate)” value read?
The value was “high polyreactivity”.

Which “polyreactivity (PSR sort gate)” value does the source give for “QVQLVESGVGLVQAGGSLRLSCAASGRIFHLYAMGWYRQAPGKERELVAAITFSGGSTYYADSVKGRFTISRDNAMNTVYLQMNSLKPEDTAVYYFAKRSFYWFSSRLPFKYDYWGQGTQVTVSS” here?
The value was “low polyreactivity”.

Which “polyreactivity (PSR sort gate)” value does the source give for “QVKLVESGGGLVQAGGSLRLSCAASGSIFSMYTMGWYRQAPGKARELVAAIDRSGGSTYYADSVKGRFTISRDNAKNTVYLQMNSLKPEDTAVYYCATDSVYIYDPYWSSIIEYDYWGQGTQVTVSS” here?
Its value is “low polyreactivity”.

With “QVQLVESGGGLVQAGGSLRLSCAASGRILGKNAMGWYRQAPRKERELVAAISGRGDRTHYADSVKGRFTISRDNAKNTVYLHMNSLKPEDTAVYYCAKDHHPPAKGQSVSLGYDYWGQGTQVTVSS” as the sequence, how does the “polyreactivity (PSR sort gate)” value read?
Its value is “low polyreactivity”.

For “QVQLVESGGGLVQAGGSLRLSSAASGSTFYYYAMGWYRQAPGKERELVATISRSTARTFYADSVKGRFTISRDNEKNTVYLQMNSLKPEDTAVYYCAATSYVSVYPSYYRFGTYGYWGQGTQVTVSS”, which “polyreactivity (PSR sort gate)” value is on record?
The value was “high polyreactivity”.

For “QVLLVESGGGIVQAGGSLRLSCSASGIIFPCYAMGWYRQAPGKERELLAAISSSGSSTYYADSVMGRFTITRDNAKNTVYLQMNSLKPEDTAVYYCAAVRYGMRRMDYWGQGTQVTVSS”, which “polyreactivity (PSR sort gate)” value is on record?
The value was “high polyreactivity”.

With “RFQLVESGGGLVQAGGSLRLSCAASGFTFRDYSMGGYRQAPGKERELVATISWGGASTSYADSVKGRFTISRDNAKNTVYLQMNSLKPEDTAVYYCNVRAQRRHGGYDHWGQGTLVTVSS” as the sequence, how does the “polyreactivity (PSR sort gate)” value read?
Its value is “low polyreactivity”.

With “QVQLVESGGGLVQAGGSLRLSCAASGGIFGGYAMGWYRPAPGKEGELVAVITSGGSTYYADSVKGRFTISRDNAKNTVYLQMNSLKPEDTAVYYCAALGQYQTVYSDGYDYYYWGQGTKVTVSS” as the sequence, how does the “polyreactivity (PSR sort gate)” value read?
Its value is “low polyreactivity”.

For “QVQLVESGGGLVQAGCSLRLSCGASGSTFIHYAMGWYRQAPGTERELVAAITWDGSSTYYADSVKGRFTISLDNAKNTVYLQMNSLKPEDTAVYDCATDYAGQYPVDGQAIHDYWGQGTQVTVSS”, which “polyreactivity (PSR sort gate)” value is on record?
Its value is “low polyreactivity”.

With “QVQLVESGGGLVQAGGSLRLICAASGRIFLTYAMGWYRQAPGKERELVAAISTSGTRTYYADSVKGRFTISRDTAKKTVYLQMNSLKPEDTAVYHCAREKYNYRTYEYWGQGTQVTVSS” as the sequence, how does the “polyreactivity (PSR sort gate)” value read?
Its value is “high polyreactivity”.

For “QVQLVESGGGLVQAGGSLRLSCAASGSIFGTYAMGWYRQAPGKEREFVAAISWSDGSTYYADSVKGRFTISRDNAKNTVYLQMNSLNPEDTAVYYCAVRRVGSIYIDRYIYVVADYDYWGQGTQVTVSS”, which “polyreactivity (PSR sort gate)” value is on record?
Its value is “low polyreactivity”.

For “QVQLVESGGGLVQAGGSLRLSCAASGSIFDVYAMGWYRQAPGKERELVAAINGGGSTYYADSVKGRFTISRDNAKNTVYLQMNSLKPEDTAVYYCAADRYYYAYRYYPSGYWGQGTQVTVSS”, which “polyreactivity (PSR sort gate)” value is on record?
Its value is “low polyreactivity”.

With “QVQLVESGGGLVQAGGSLRLTSAASGRIFSHNAMGWCRPAPGKERELVAAITVGGGSTFYADSVKGRFTISRDNAKNTVYLQMNSLKPEDTAVYYCAADYYTQWQTRYDYWGQGTQVTVSS” as the sequence, how does the “polyreactivity (PSR sort gate)” value read?
Its value is “low polyreactivity”.

With “QVQLVESGGGLVQAGGSLRLSCAASGSTFSRYAMGWDRQAPGKEMELVAAISSSGGGTYYADSVKGRFTISRDNAKNTVYLQMNSLKPEDTAVSYCAAKRVHGATGYWGQGTQVTVSS” as the sequence, how does the “polyreactivity (PSR sort gate)” value read?
The value was “high polyreactivity”.

With “QVQLVESGGGLVQAGGSLRLICAASGIIFYRYAMGWYRQAPGKEREFVAAISRGGGSTYYADSVKGRFTISRDNAKNTVYLQMNSLKPEDTAVYYCNARVTRVTVDQYSIKSMDYWGQGTQVTVSS” as the sequence, how does the “polyreactivity (PSR sort gate)” value read?
Its value is “high polyreactivity”.

Which “polyreactivity (PSR sort gate)” value does the source give for “QVQLQESGGGLVQAGGSLLSCAASGTISYYREMGWYRQAPGKERELVAGIGVGTITYYADSVKGRFTISRDNAKHTVYLQMNSLKPEDTAVYYCAAAYQEYDYHYYYWGQGTQVTVSS” here?
Its value is “low polyreactivity”.

With “QVQLVESGGGLVQAGGSLRLSCAASGSIFTYYAMGWYRQAPGKEREFVAAISRRGGSTYYADSVKGRFTISRDNAKNTVYLQMNSLKPEDTAVYYCAADRWTRTLVKVIGRYYYWGQGTQVTVSS” as the sequence, how does the “polyreactivity (PSR sort gate)” value read?
The value was “high polyreactivity”.

With “QVQLVESGGGLVQAGGSHRLSCAASGRIFSDYAMGWYRQAPGKERELVAAITRDGSTNYADSVKGLFTISRDNAKNTVYLQLNSLKPEDTAVYYCAAEGRRGGKDYDYWGQGTQVTVSS” as the sequence, how does the “polyreactivity (PSR sort gate)” value read?
Its value is “high polyreactivity”.

Which “polyreactivity (PSR sort gate)” value does the source give for “QGQLVESGGGLVQAGGSLRLSCAASGSTFGYNVMGWYRQATGKERELVAAINYSGVRTYYADSVKGRFTISRDNAKNTVYLQMNSLIPEDTAVYYCNATPTRAVGPYQYNYWGQGTQVTVSS” here?
Its value is “high polyreactivity”.
